Source: paper PMC6138665

Columns and labels:
LC3B [1] = target: LC3B (UniProt Q9GZQ8); assay: NMR HSQC titration of 15N-LC3B; conditions: reference: unphosphorylated peptide P0; sites S1014
LC3A = LC3A (UniProt Q9H492); assay: ITC, peptide titrated into LC3A; conditions: reference: unphosphorylated peptide P0; sites S1014
LC3C = LC3C (UniProt Q9BXW4); assay: ITC, peptide titrated into LC3C; conditions: reference: unphosphorylated peptide P0; sites S1014
GABARAP-L1 = GABARAP-L1 (UniProt Q9H0R8); assay: ITC, peptide titrated into GABARAP-L1; conditions: reference: unphosphorylated peptide P0; sites S1014
Sequence of GABARAP-L1 (Q9H0R8 whole entry, looked up): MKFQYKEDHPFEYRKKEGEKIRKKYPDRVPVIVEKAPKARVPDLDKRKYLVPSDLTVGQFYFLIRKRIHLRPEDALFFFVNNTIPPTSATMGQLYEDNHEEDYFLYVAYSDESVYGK

GABARAP-L2 = GABARAP-L2 (UniProt P60520); assay: ITC, peptide titrated into GABARAP-L2; conditions: reference: unphosphorylated peptide P0; sites S1014
Sequence of GABARAP-L2 (P60520 whole entry, looked up): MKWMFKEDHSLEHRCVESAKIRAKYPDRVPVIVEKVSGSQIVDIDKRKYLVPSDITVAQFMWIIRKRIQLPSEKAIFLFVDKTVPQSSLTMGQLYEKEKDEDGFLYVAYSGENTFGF

LC3B [2] = target: LC3B (UniProt Q9GZQ8); assay: co-immunoprecipitation of Myc-AMBRA1, LC3 blot; conditions: reference: Myc-AMBRA1 wild type; sites S1014

Sequence of LC3C (Q9BXW4 whole entry, looked up): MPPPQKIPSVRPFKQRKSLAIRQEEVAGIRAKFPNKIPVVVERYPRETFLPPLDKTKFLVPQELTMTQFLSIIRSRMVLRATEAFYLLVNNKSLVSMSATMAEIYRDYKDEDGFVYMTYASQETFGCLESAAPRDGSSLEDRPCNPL

| binding against the reference (LC3B [1]) | binding against the reference (LC3A) | binding against the reference (LC3C) | binding against the reference (GABARAP-L1) | binding against the reference (GABARAP-L2) | binding against the reference (LC3B [2]) | Substance |
| --- | --- | --- | --- | --- | --- | --- |
| stronger | stronger | stronger | stronger | stronger |  | AMBRA1 AMBRA1-LIR (from UniProt Q9C0C7-3) pS1014 peptide P1 |
|  |  |  |  |  | weaker | AMBRA1 (from UniProt Q9C0C7-3) S1014A |
